From patent US20250000904A1

Tests used:
Experiment in all cases: cell-based or functional assay
[1] = target: TGFβR2-IL12Rβ signaling redirector receptor
[2] = target: TGFβR2-IL21Rβ signaling redirector receptor
[3] = target: TGFβR2-IL2Rβ signaling redirector receptor

Measured: increase in tumor cell numbers over base input after three rounds of restimulation, with recombinant TGFβ

Sequence of TGFβR2-IL2Rβ signaling redirector receptor (chain, as listed by the source): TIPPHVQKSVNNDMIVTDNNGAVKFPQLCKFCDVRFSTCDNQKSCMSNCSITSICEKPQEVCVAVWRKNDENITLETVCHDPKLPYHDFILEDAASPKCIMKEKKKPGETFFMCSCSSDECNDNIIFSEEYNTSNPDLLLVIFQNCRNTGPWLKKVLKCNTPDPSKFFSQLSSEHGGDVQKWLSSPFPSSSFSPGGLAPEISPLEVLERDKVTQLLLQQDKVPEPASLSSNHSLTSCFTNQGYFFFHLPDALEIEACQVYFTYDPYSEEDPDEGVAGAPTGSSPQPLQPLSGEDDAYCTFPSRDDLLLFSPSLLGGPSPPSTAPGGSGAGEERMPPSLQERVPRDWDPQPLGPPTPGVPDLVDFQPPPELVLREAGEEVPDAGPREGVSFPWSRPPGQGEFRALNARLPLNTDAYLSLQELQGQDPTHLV
Sequence of TGFβR2-IL12Rβ signaling redirector receptor (main, as listed by the source): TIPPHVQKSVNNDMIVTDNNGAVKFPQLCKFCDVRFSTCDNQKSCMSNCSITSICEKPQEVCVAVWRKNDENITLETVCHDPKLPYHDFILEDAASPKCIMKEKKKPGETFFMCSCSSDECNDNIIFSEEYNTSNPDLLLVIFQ
Sequence of TGFβR2-IL21Rβ signaling redirector receptor (chain, as listed by the source): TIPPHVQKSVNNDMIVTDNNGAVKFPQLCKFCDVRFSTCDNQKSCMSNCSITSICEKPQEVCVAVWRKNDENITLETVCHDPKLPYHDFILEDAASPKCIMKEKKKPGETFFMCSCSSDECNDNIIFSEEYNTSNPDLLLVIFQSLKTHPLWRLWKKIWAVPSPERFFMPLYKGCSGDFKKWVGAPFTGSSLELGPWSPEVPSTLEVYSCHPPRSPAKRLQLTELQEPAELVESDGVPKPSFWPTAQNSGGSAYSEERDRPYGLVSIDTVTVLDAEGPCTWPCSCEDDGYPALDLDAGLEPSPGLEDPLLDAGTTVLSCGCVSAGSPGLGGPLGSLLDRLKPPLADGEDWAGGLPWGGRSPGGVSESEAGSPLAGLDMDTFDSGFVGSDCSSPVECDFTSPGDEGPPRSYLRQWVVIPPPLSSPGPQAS

recombinant TGFβ (ligand)
1.5 fold: all assays above
